Experimental data published in patent US20180273617A1 (AstraZeneca / MedImmune, published 2018).

Target: T1, human ASCT2 (SLC1A5) (human, UniProt Q15758 1-541)
T1 sequence (looked up): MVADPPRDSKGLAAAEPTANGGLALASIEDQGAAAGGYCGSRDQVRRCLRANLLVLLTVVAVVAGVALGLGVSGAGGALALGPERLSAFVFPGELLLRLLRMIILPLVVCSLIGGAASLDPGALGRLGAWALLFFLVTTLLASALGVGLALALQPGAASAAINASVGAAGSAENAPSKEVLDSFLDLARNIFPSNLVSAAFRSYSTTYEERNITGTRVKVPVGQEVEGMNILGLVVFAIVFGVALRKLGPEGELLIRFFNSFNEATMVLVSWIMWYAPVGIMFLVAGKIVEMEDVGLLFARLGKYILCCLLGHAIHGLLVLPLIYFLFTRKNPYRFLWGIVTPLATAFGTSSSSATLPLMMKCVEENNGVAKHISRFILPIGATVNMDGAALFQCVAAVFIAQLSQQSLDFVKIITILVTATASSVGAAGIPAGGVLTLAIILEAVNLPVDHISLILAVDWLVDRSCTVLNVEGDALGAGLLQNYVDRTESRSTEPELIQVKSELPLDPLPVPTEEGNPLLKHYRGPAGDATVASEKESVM
Test: cell-based or functional assay

B1: anti-ASCT2 antibody 17c10 conjugated to tubulysin AZ1508 (antibody, V domains shown)
VH: QVQLQQWGAGLLKPSETLSLTCAVYGGSFSGYYWSWIRQPPGKGLEWIGEIHHSGGANYNPSLKSRVTISVDTSKNQFSLKLTSVTAADTAVYYCARGQGKNWHYDYFDYWGQGTLVTVSS
VL: DIQMTQSPSTLSTSVGDRVTLTCRASQSIRSWLAWYQQNPGKAPKLLIYKASILKIGVPSRFSGSGSGTDFTLTITSLQPDDFATYYCQQYYSYSRTFGQGTKVEIK
modifications: tubulysin AZ1508 conjugated to a cysteine by a thiol-maleimide linkage; site not stated for these assays (engineered cysteine 239i or native cysteines)
IC50 (ng/ml), cytotoxic killing of SKMEL-2 cells, ASCT1-shRNA1 knockdown: 7.59 ng/mL
IC50 (ng/ml), cytotoxic killing of SKMEL-2 cells, ASCT1-shRNA2 knockdown: 4.96 ng/mL
IC50 (ng/ml), cytotoxic killing of SKMEL-2 cells, ASCT2-shRNA knockdown: 205 ng/mL
IC50 (ng/ml), cytotoxic killing of SKMEL-2 cells, NTshRNA (non-target control): 14.3 ng/mL
